Reference: PMC8406365 (Acta Biochimica et Biophysica Sinica, 2021)

Biological target: SENP3 (endogenous, LO2 hepatocytes) (human (endogenous in LO2), UniProt Q9H4L4 1-574)
Test: FRET or BRET

SENP3 (endogenous, LO2 hepatocytes), sequence (Q9H4L4 whole entry): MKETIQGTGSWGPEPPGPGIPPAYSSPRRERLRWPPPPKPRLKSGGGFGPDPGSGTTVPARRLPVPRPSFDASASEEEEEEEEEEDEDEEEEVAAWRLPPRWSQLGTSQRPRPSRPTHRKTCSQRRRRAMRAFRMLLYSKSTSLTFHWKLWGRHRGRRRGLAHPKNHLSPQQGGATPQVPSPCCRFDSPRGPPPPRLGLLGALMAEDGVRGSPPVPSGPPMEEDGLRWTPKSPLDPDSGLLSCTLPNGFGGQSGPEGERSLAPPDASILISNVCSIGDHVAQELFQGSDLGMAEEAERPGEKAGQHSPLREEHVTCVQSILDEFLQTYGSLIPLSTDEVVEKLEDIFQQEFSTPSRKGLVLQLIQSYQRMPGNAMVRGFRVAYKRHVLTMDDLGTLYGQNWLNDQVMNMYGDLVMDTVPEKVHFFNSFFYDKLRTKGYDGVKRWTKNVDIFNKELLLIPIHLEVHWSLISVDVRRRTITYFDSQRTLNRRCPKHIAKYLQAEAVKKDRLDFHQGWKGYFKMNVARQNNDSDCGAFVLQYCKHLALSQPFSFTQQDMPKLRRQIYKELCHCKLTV

FRET efficiency: ~25%
B1: ATP synthase subunit (ATP5F1A) (natural protein, human (endogenous in LO2), UniProt P25705 44-553, looked up)
chain: QKTGTAEMSSILEERILGADTSVDLEETGRVLSIGDGIARVHGLRNVQAEEMVEFSSGLKGMSLNLEPDNVGVVVFGNDKLIKEGDIVKRTGAIVDVPVGEELLGRVVDALGNAIDGKGPIGSKTRRRVGLKAPGIIPRISVREPMQTGIKAVDSLVPIGRGQRELIIGDRQTGKTSIAIDTIINQKRFNDGSDEKKKLYCIYVAIGQKRSTVAQLVKRLTDADAMKYTIVVSATASDAAPLQYLAPYSGCSMGEYFRDNGKHALIIYDDLSKQAVAYRQMSLLLRRPPGREAYPGDVFYLHSRLLERAAKMNDAFGGGSLTALPVIETQAGDVSAYIPTNVISITDGQIFLETELFYKGIRPAINVGLSVSRVGSAAQTRAMKQVAGTMKLELAQYREVAAFAQFGSDLDAATQQLLSRGVRLTELLKQGQYSPMAIEEQVAVIYAGVRGYLDKLEPSKITKFENAFLSHVVSQHQALLGTIRADGKISEQSDAKLKEIVTNFLAGFEA
